Experimental data from US20230027540A1.

Each substance was assayed against IL-12 receptor complex composed of IL-12 receptor β1 (IL-12Rβ1) and IL-12 receptor β2 (IL-12Rβ2) (human) (UniProt P42701) (assay: cell-based or functional assay).
IL-12 receptor complex composed of IL-12 receptor β1 (IL-12Rβ1) and IL-12 receptor β2 (IL-12Rβ2) (human), sequence (Q99665 24-862, chain 2 of 2, other chains not shown): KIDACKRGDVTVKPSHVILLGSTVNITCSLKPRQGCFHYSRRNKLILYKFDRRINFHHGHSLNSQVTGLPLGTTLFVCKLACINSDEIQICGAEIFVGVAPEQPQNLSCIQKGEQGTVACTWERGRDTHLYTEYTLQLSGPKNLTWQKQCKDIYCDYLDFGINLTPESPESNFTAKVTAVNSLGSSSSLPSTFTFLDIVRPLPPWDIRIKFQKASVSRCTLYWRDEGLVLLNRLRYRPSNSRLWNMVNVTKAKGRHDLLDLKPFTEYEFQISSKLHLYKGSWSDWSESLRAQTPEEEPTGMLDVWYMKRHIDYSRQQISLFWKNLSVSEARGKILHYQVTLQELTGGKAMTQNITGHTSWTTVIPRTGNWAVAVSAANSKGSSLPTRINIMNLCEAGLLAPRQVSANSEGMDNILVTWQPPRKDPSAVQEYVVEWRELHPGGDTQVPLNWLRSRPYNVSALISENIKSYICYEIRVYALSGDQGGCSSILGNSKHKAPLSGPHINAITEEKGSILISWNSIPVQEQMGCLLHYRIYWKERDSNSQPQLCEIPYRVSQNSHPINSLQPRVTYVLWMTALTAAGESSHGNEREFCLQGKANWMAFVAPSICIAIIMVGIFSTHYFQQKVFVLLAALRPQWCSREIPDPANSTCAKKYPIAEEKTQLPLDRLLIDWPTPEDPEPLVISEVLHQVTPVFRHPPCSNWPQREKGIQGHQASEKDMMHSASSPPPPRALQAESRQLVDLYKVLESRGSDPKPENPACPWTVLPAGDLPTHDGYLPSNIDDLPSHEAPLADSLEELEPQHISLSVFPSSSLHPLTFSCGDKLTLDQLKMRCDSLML

fold reduction in potency (EC50 of STAT4 phosphorylation) relative to WT IL-12-Fc XENP27201 [fold]	Substance
2	IL-12-Fc fusion comprising IL-12p35(D55Q/N151D)
> 2	IL-12-Fc fusion comprising IL-12p35(E153Q)
> 2	IL-12-Fc fusion comprising IL-12p40(E235Q)
